# Measured values published in doi:10.1101/2025.09.25.678639, “The DND1–NANOS3 complex shapes the primordial germ cell transcriptome via a heptanucleotide sequence in mRNA 3′ UTRs”.
# T1: DND1 1-230 (RRM1-RRM2) (human, UniProt Q8IYX4 1-230)
# T1 sequence: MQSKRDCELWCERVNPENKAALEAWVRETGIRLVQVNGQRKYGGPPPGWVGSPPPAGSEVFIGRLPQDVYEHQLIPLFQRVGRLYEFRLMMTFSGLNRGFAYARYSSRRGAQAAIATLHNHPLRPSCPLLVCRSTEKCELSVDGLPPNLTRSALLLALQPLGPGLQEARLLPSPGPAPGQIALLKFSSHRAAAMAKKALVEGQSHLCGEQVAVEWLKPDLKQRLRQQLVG
# T2: DND1 13-230 (del1-12) (human, UniProt Q8IYX4 13-230, del1-12)
# T2 sequence: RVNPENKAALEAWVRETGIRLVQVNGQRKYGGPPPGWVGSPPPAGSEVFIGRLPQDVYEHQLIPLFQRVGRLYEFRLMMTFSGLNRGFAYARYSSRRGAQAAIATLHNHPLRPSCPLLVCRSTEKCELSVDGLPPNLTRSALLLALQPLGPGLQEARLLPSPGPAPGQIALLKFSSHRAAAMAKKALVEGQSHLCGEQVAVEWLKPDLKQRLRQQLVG
# Key:
# DND1 1-230 (RRM1-RRM2) = biological target: T1, DND1 1-230 (RRM1-RRM2); assay: MST; MST: 20 mM HEPES pH 7.4, 150 mM NaCl, 1 mM DTT, 0.05% Tween20 and 10 ug/mL yeast tRNA after 1:1 mixing, 5 nM Cy5-RNA, partner 2 uM final, 30 min at room temperature, measured at 25 C; conditions: protein: recombinant; tags: His6-SUMO removed by Ulp1; N-terminal Ser (residue 0) from BamHI site; label: 5'-Cy5
# [1] = biological target: DND1 1-230 (RRM1-RRM2);NANOS3 ZF+C (human;human, UniProt Q8IYX4;P60323 1-230;55-173, |); assay: MST; DND1 titrated, 2 uM NANOS3 ZF+C; MST: 20 mM HEPES pH 7.4, 150 mM NaCl, 1 mM DTT, 0.05% Tween20 and 10 ug/mL yeast tRNA after 1:1 mixing, 5 nM Cy5-RNA, partner 2 uM final, 30 min at room temperature, measured at 25 C; conditions: protein: recombinant;recombinant; tags: His6-SUMO removed by Ulp1; N-terminal Ser (residue 0) from BamHI site;His6-SUMO removed by Ulp1; N-terminal Ser (residue 54) from BamHI site; copies: 1;1; label: 5'-Cy5
# [2] = biological target: DND1 13-230 (del1-12);NANOS3 ZF (ZF1-ZF2) (human;human, UniProt Q8IYX4;P60323 13-230;55-113, del1-12|); assay: MST; DND1 titrated, 2 uM NANOS3 ZF; MST: 20 mM HEPES pH 7.4, 150 mM NaCl, 1 mM DTT, 0.05% Tween20 and 10 ug/mL yeast tRNA after 1:1 mixing, 5 nM Cy5-RNA, partner 2 uM final, 30 min at room temperature, measured at 25 C; conditions: protein: recombinant;recombinant; tags: His6-SUMO removed by Ulp1;His6-SUMO removed by Ulp1; N-terminal Ser (residue 54) from BamHI site; copies: 1;1; label: 5'-Cy5
# DND1 H189A;NANOS3 ZF+C = DND1 H189A;NANOS3 ZF+C (human;human, UniProt Q8IYX4;P60323 1-230;55-173, H189A|); assay: MST; DND1 titrated, 2 uM NANOS3 ZF+C; MST: 20 mM HEPES pH 7.4, 150 mM NaCl, 1 mM DTT, 0.05% Tween20 and 10 ug/mL yeast tRNA after 1:1 mixing, 5 nM Cy5-RNA, partner 2 uM final, 30 min at room temperature, measured at 25 C; conditions: protein: recombinant;recombinant; tags: His6-SUMO removed by Ulp1;His6-SUMO removed by Ulp1; N-terminal Ser (residue 54) from BamHI site; copies: 1;1; label: 5'-Cy5
# DND1 F93A;NANOS3 ZF+C = DND1 F93A;NANOS3 ZF+C (human;human, UniProt Q8IYX4;P60323 1-230;55-173, F93A|); assay: as above; conditions: protein: recombinant;recombinant; tags: His6-SUMO removed by Ulp1;His6-SUMO removed by Ulp1; N-terminal Ser (residue 54) from BamHI site; copies: 1;1; label: 5'-Cy5
# DND1 13-230 (del1-12) = biological target: T2, DND1 13-230 (del1-12); assay: MST; MST: 20 mM HEPES pH 7.4, 150 mM NaCl, 1 mM DTT, 0.05% Tween20 and 10 ug/mL yeast tRNA after 1:1 mixing, 5 nM Cy5-RNA, partner 2 uM final, 30 min at room temperature, measured at 25 C; conditions: protein: recombinant; tags: His6-SUMO removed by Ulp1; label: 5'-Cy5
# DND1 K196A;NANOS3 ZF+C = DND1 K196A;NANOS3 ZF+C (human;human, UniProt Q8IYX4;P60323 1-230;55-173, K196A|); assay: MST; DND1 titrated, 2 uM NANOS3 ZF+C; MST: 20 mM HEPES pH 7.4, 150 mM NaCl, 1 mM DTT, 0.05% Tween20 and 10 ug/mL yeast tRNA after 1:1 mixing, 5 nM Cy5-RNA, partner 2 uM final, 30 min at room temperature, measured at 25 C; conditions: protein: recombinant;recombinant; tags: His6-SUMO removed by Ulp1;His6-SUMO removed by Ulp1; N-terminal Ser (residue 54) from BamHI site; copies: 1;1; label: 5'-Cy5
# DND1 K196A;NANOS3 ZF+C, sequence (Q8IYX4 1-230 K196A, chain 1 of 2): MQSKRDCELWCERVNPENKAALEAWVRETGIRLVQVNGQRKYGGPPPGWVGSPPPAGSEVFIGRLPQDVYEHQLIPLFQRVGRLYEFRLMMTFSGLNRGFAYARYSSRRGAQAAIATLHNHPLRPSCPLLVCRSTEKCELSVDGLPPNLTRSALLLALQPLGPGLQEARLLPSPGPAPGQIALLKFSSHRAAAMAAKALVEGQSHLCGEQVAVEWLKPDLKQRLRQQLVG
# DND1 K196A;NANOS3 ZF+C, sequence (P60323 55-173, chain 2 of 2): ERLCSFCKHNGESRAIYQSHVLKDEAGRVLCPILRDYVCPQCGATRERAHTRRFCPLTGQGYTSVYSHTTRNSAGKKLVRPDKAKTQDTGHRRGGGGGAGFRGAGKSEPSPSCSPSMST
# DND1 1-230 (RRM1-RRM2);NANOS3 ZF+C, sequence (P60323 55-173, chain 2 of 2, one chain of several): as the sequence (P60323 55-173, chain 2 of 2) above
# DND1 F93A;NANOS3 ZF+C, sequence (Q8IYX4 1-230 F93A, chain 1 of 2): as the sequence (Q8IYX4 1-230 K196A, chain 1 of 2) above, with F93A, A196K counted along it
# DND1 F93A;NANOS3 ZF+C, sequence (P60323 55-173, chain 2 of 2): as the sequence (P60323 55-173, chain 2 of 2) above
# DND1 H189A;NANOS3 ZF+C, sequence (P60323 55-173, stated change not applied, one chain of several): as the sequence (P60323 55-173, chain 2 of 2) above
# DND1 13-230 (del1-12);NANOS3 ZF (ZF1-ZF2), sequence (P60323 55-113, stated change not applied, chain 2 of 2, one chain of several): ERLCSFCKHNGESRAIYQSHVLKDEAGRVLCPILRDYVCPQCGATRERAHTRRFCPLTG
Binder,Kd (DND1 1-230 (RRM1-RRM2)),Kd [1],Kd (DND1 K196A;NANOS3 ZF+C),also measured
AUAUGACCCAUUU (ssRNA) [spacer],8.2 ± 3.6 µM,,,
AUGCCACUCU (ssRNA) [D1-N3mut],11 ± 2.1 µM,12 ± 3 µM,,
AUAUGAAUUU (ssRNA) [CDK1 N3-DRE (Cy5)],,,,Kd [2]: 4 ± 2.4 µM; Kd (DND1 H189A;NANOS3 ZF+C): 0.16 ± 0.05 µM; Kd (DND1 F93A;NANOS3 ZF+C): 1.1 ± 0.4 µM; Kd (DND1 13-230 (del1-12)): 3.7 ± 1.4 µM
AUAUAAAUUU (ssRNA) [G3A],,,0.17 ± 0.04 µM,
AUAUUAAUUU (ssRNA) [G3U],,,0.13 ± 0.02 µM,
AUAUGACUCU (ssRNA) [N3mut],6.4 ± 3.8 µM,2.7 ± 1.1 µM,,
AUGCCAAUUU (ssRNA) [D1mut],15 ± 4.7 µM,15 ± 7.7 µM,,
AUAUCAAUUU (ssRNA) [G3C],,,0.31 ± 0.09 µM,
